This note sets out measurements from patent US6949349.

The IC50 is the concentration needed to halve the response being measured. High values mean lower potency, low ones higher potency.

The target in assay [1] is T1, recombinant human IGFBP-3 (human, UniProt P17936 28-291).
T1 construct: also called rhIGFBP-3
In words: phage ELISA on IGFBP-3 plate, 50-fold phage dilution, with/without 100 nM IGF-I as competitor (FIG. 29). The protocol: The plates were then washed ten times, as above, and a solution of rabbit anti-phage antibody mixed with a goat-anti-rabbit conjugate of horse radish peroxidase was added. After an incubation of 1 hour at room temperature, the plates were developed with a chromogenic substrate, o-phenylenediamine (Sigma). The reaction was stopped with addition of ½ volume of 2.5 M H_2SO_4. Optical density at 490 nm was measured on a spectrophotometric plate reader.
In each case, the phagemid clone was grown from a single colony overnight at 37° C. in a culture volume of 5 ml. The phage particles were precipitated and resuspended in 0.5 ml of PBS buffer.
On the technique in general: ELISA stands for enzyme-linked immunosorbent assay.

Assay [2] deals with T2, IGFBP-3 (human, UniProt P17936 28-291).
T2 construct: also called rhIGFBP-3
In words: BIAcore competition: peptide inhibits IGFBP-3 binding to IGF-I; ratio to bp3-01-ox. For orientation: In SPR one partner is held on a chip, and binding of the other changes the refractive index at the surface.

The target in assay [3] is T3, IGFBP-1 (human, UniProt P08833 26-259).
T3 construct: Biotinylated in the ELISA assays; also called rhIGFBP-1
T3 sequence (looked up): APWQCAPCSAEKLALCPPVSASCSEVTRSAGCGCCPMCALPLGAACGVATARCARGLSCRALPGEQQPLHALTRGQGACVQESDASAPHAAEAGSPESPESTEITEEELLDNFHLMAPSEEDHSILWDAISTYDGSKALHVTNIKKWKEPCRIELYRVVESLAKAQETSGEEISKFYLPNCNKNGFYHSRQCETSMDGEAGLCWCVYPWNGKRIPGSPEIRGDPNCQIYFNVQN
As to the kind of experiment: biotinylated-IGFBP-1 ELISA: peptide inhibits IGFBP-1 binding to IGF-I; ratio to bp1-01 (wt).

The target of assay [4] is T3, IGFBP-1. In words: ELISA plate assay: peptide inhibits IGFBP-1 binding to IGF-I; ratio to bp1-01 (wt).
The target of assay [5] is T2, IGFBP-3. As to the kind of experiment: BIAcore competition: peptide inhibits IGFBP-3 binding to immobilized IGF-I.
The target in assay [6] is T3, IGFBP-1. In words: BIAcore competition: peptide inhibits IGFBP-1 binding to IGF-II; ratio to bp1-01 (wt).
The target of assay [7] is T3, IGFBP-1. In words: BIAcore competition: peptide inhibits IGFBP-1 binding to IGF-I; ratio to bp1-01 (wt).

Positions of bridges follow the written chain, without caps; N, C: chain ends. Non-standard residues stand in square brackets, D forms with d. No end group written: not given here. Aib = CC(C)(N)C(=O)O

T2 sequence (P17936 28-291 limits assumed): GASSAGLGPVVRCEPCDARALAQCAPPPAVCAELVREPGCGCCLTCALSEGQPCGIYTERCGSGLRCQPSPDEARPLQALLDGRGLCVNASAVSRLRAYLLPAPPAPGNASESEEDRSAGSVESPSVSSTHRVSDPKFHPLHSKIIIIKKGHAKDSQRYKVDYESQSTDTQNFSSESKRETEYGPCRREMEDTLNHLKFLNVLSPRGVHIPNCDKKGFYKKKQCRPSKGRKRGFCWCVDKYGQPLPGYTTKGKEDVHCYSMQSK
T1 sequence (P17936 28-291 limits assumed): as above

B1: peptide-phage clone 4D3.8 (g8 display) (peptide, not shown: large carriers)
chain: SEEVCWPVAEWYLCNILGP
modifications: not fully specified (C-terminus, bridges); cysteine pairing not given here; also: polyvalent display on phage particle
notes: Tested as a whole phage particle with polyvalent display
For the molecule B1, the “percent inhibition of phage binding by IGF-I” value in assay [1] was over 40%.

B2: bp3-39 (peptide)
peptide: SEEVCWPVAEWYLCN-NH2
modifications: disulfide 5-14 (inferred)
Turning to B2, the “IC50 (mut)/IC50 (wt)” value in assay [2] was found to be 0.33 ratio.

B3: bp3-24 (SEQ ID NO:107) (peptide)
peptide: WPVAEWYLCN
Regarding B3, in assay [2], the “IC50 (mut)/IC50 (wt)” value was over 500 ratio.

B4: bp1-01 Y13aib (peptide)
peptide: CRAGPLQWLCEK[Aib]FG
modifications: disulfide 1-10
notes: Non-natural variant of bp1-01; X stands for aib
As to B4, in assay [3], the “IC50 (mut)/IC50 (wt)” value was 7.1 ratio.

B5: bp1-01 L6a (peptide)
peptide: CRAGP[dA]QWLCEKYFG
modifications: disulfide 1-10
notes: Non-natural variant of bp1-01 (a = D-alanine)
For the molecule B5, in assay [3], the “IC50 (mut)/IC50 (wt)” value was 400 ratio.

B6: bp1-01 F14aib (peptide)
peptide: CRAGPLQWLCEKY[Aib]G
modifications: disulfide 1-10
notes: as for B4
In the case of B6, the “IC50 (mut)/IC50 (wt)” value in assay [3] is 3 ratio.

B7: bp1-15 (peptide)
peptide: CAAGPLQWLCEKYF
notes: g8 bp1-01 selectant
Regarding B7, in assay [4], the “IC50 (mut)/IC50 (wt)” value is 0.68 ratio.

B8: bp1028 (peptide)
peptide: CRAGPLQWLCERFF
notes: g8 bp1-01 selectant
As for B8, in assay [4], the “IC50 (mut)/IC50 (wt)” value stood at 4.6 ratio.

B9: bp67 (peptide)
peptide: CRAGPLQWLCERYF
notes: g8 bp1-01 selectant
Take B9: in assay [4], the “IC50 (mut)/IC50 (wt)” value was determined as 0.34 ratio.

B10: bp1029 (peptide)
peptide: CREGPLQWLCERFF
notes: g8 bp1-01 selectant
For the molecule B10, in assay [4], the “IC50 (mut)/IC50 (wt)” value worked out at 1.7 ratio.

B11: bp68 (peptide)
peptide: CRAGPLQWLCEKFF
notes: g8 bp1-01 selectant
As for B11, the “IC50 (mut)/IC50 (wt)” value in assay [4] came out at 0.39 ratio.

B12: bp3-30 (peptide)
peptide: ASEEVCWPVAEWYLCN
notes: bp3-01-ox variant
For the molecule B12, the “IC50 (mut)/IC50 (wt)” value in assay [2] was found to be 2.8 ratio. The IC50 in assay [5] was 5.6 µM.

B13: bp1027 (peptide)
peptide: CKAGPLLWLCERFF
notes: g8 bp1-01 selectant
Consider B13, for which the “IC50 (mut)/IC50 (wt)” value in assay [4] stood at 8.8 ratio.

B14: bp1030 (peptide)
peptide: CKEGPLLWLCERFF
notes: g8 bp1-01 selectant
B14: the “IC50 (mut)/IC50 (wt)” value in assay [4] is 4.3 ratio.

B15: bp1-01 E11aib (peptide)
peptide: CRAGPLQWLC[Aib]KYFG
modifications: disulfide 1-10
notes: as for B4
Regarding B15, the “IC50 (mut)/IC50 (wt)” value in assay [3] came out at 1 ratio.

B16: bp3-27 (peptide)
peptide: EVCWPVAEWYLCN
notes: bp3-01-ox variant
B16: the “IC50 (mut)/IC50 (wt)” value in assay [2] came out at 1.4 ratio. Besides, in assay [5], the IC50 came to 2.8 µM.

B17: bp3-40 (peptide)
peptide: Ac-SEEVCWPVAEWYLCN-NH2
modifications: disulfide 5-14 (inferred)
On to B17, for which the “IC50 (mut)/IC50 (wt)” value in assay [2] came out at 0.33 ratio.

B18: bp3-25 (SEQ ID NO:106) (peptide)
peptide: CWPVAEWYLCN
As to B18, the “IC50 (mut)/IC50 (wt)” value in assay [2] is 23 ratio. In assay [5], this molecule returned an IC50 of 46 µM.

B19: bp3-28 (peptide)
peptide: EEVCWPVAEWYLCN
notes: bp3-01-ox variant
Regarding B19, the “IC50 (mut)/IC50 (wt)” value in assay [2] was 2.7 ratio. Besides, the IC50 in assay [5] amounted to 5.4 µM.

B20: bp3-15 (peptide)
peptide: SEEVCWPVAEWYLCN
notes: also called BP15
With B20, the “IC50 (mut)/IC50 (wt)” value in assay [2] was determined as 0.36 ratio. Besides, the IC50 in assay [5] amounted to 0.72 µM.

B21: bp1-01 R2a (peptide)
peptide: C[dA]AGPLQWLCEKYFG
modifications: disulfide 1-10
notes: as for B5
With B21, the “IC50 (mut)/IC50 (wt)” value in assay [3] came out at 50 ratio.

B22: 4d3.3 (peptide)
peptide: ASEEVCWPVAEWYLCNMWGR
On to B22, for which the “IC50 (mut)/IC50 (wt)” value in assay [2] is 2.8 ratio. Moreover, the IC50 in assay [5] came out at 5.6 µM.

B23: bp1-01 K12aib (peptide)
peptide: CRAGPLQWLCE[Aib]YFG
modifications: disulfide 1-10
notes: as for B4
Take B23: the “IC50 (mut)/IC50 (wt)” value in assay [3] was 2 ratio.

B24: bp1-01 A3a (peptide)
chain: CR[dA]GPLQWLCEKYFG
modifications: disulfide 1-10 (inferred)
With B24, the “IC50 (mut)/IC50 (wt)” value in assay [3] turned out to be 34 ratio.

B25: bp1-02 (peptide)
peptide: SEVGCRAGPLQWLCEKYFG-NH2
modifications: disulfide 5-14; N-terminus assumed
SMILES: CC(C)C[C@@H]1NC(=O)[C@H](Cc2c[nH]c3ccccc23)NC(=O)[C@H](CCC(N)=O)NC(=O)[C@H](CC(C)C)NC(=O)[C@@H]2CCCN2C(=O)CNC(=O)[C@H](C)NC(=O)[C@H](CCCNC(=N)N)NC(=O)[C@@H](NC(=O)CNC(=O)[C@@H](NC(=O)[C@H](CCC(=O)O)NC(=O)[C@@H](N)CO)C(C)C)CSSC[C@@H](C(=O)N[C@@H](CCC(=O)O)C(=O)N[C@@H](CCCCN)C(=O)N[C@@H](Cc2ccc(O)cc2)C(=O)N[C@@H](Cc2ccccc2)C(=O)NCC(N)=O)NC1=O
notes: 19-mer variant of bp1-01
As to B25, the “IC50 (mut)/IC50 (wt)” value in assay [4] came to 0.37 ratio.

B26: bp1-01 E11A (peptide)
peptide: CRAGPLQWLCAKYFG
notes: Ala-scan variant of bp1-01
For B26, the “IC50 (mut)/IC50 (wt)” value in assay [6] was found to be 2.4 ratio; in assay [7] it was 2.9 ratio.

B27: bp1-01 L6A (peptide)
peptide: CRAGPAQWLCEKYFG
notes: Ala-scan variant of bp1-01
Regarding B27, the figures for the “IC50 (mut)/IC50 (wt)” value in assay [6] and in assay [7] were 34.7 ratio and 30.3 ratio, respectively.

B28: bp1-01 L9A (peptide)
peptide: CRAGPLQWACEKYFG
notes: Ala-scan variant of bp1-01
Turning to B28, the “IC50 (mut)/IC50 (wt)” value in assay [6] was found to be 29.7 ratio; in assay [7], 33.2 ratio.

B29: bp1-01 Y13A (peptide)
peptide: CRAGPLQWLCEKAFG
notes: Ala-scan variant of bp1-01
Regarding B29, the “IC50 (mut)/IC50 (wt)” value is 14.6 ratio in assay [6] and 12.5 ratio in assay [7].

B30: bp1-01 Q7A (peptide)
peptide: CRAGPLAWLCEKYFG
notes: Ala-scan variant of bp1-01
On to B30, for which the “IC50 (mut)/IC50 (wt)” value in assay [6] was determined as 0.6 ratio; in assay [7], 0.7 ratio.

B31: bp1-01 W8A (peptide)
peptide: CRAGPLQALCEKYFG
notes: Ala-scan variant of bp1-01
B31: the “IC50 (mut)/IC50 (wt)” value in assay [6] worked out at 6.4 ratio; in assay [7], 7.4 ratio.

B32: bp1-01 K12A (peptide)
peptide: CRAGPLQWLCEAYFG
notes: Ala-scan variant of bp1-01
As to B32, the “IC50 (mut)/IC50 (wt)” value in assay [6] is 5.3 ratio; in assay [7] it was 7.9 ratio.

B33: bp1-01 R2A (peptide)
peptide: CAAGPLQWLCEKYFG
modifications: disulfide 1-10 (inferred)
notes: Ala-scan variant of bp1-01; termini and disulfide not restated
For B33, the “IC50 (mut)/IC50 (wt)” value in assay [6] and in assay [7] was 0.9 ratio in each case.

B34: bp1-01 F14A (peptide)
peptide: CRAGPLQWLCEKYAG
notes: Ala-scan variant of bp1-01
As for B34, the results for the “IC50 (mut)/IC50 (wt)” value in assay [6] and in assay [7] were 5.8 ratio and 6.2 ratio, respectively.

B35: bp1-01 Q7 aib (peptide)
peptide: CRAGPL[Aib]WLCEKYFG
modifications: disulfide 1-10
notes: as for B4
On to B35, for which the “IC50 (mut)/IC50 (wt)” value in assay [3] was 1.6 ratio.

B36: bp3-41 (peptide)
peptide: GPETCWPVAEWYLCN
notes: bp3-01-ox variant
Regarding B36, the “IC50 (mut)/IC50 (wt)” value in assay [2] is 2 ratio. The same molecule displayed an IC50 in assay [5] of 4 µM.

B37: peptide-phage clone 4C3.2 (g8 display) (peptide, not shown: large carriers)
chain: ELDGWVCIKVGEQNLCYLAE
modifications: not fully specified (C-terminus, bridges); cysteine pairing not given here; also: polyvalent display on phage particle
notes: as for B1
For the molecule B37, the “percent inhibition of phage binding by IGF-I” value in assay [1] is over 40%.

B38: bp1-01 G4a (peptide)
peptide: CRA[dA]PLQWLCEKYFG
modifications: disulfide 1-10
notes: as for B5
B38: the “IC50 (mut)/IC50 (wt)” value in assay [3] came to 0.6 ratio.

B39: bp1-01 L9aib (peptide)
peptide: CRAGPLQW[Aib]CEKYFG
modifications: disulfide 1-10
notes: as for B4
Consider B39, for which, in assay [3], the “IC50 (mut)/IC50 (wt)” value came to 400 ratio.

B40: bp1-01 W8aib (peptide)
peptide: CRAGPLQ[Aib]LCEKYFG
modifications: disulfide 1-10
notes: as for B4
Turning to B40, the “IC50 (mut)/IC50 (wt)” value in assay [3] was determined as 24 ratio.
